Substitutions are numbered along the chain they refer to. Where two headings read alike, the source gives them in different places.

For test [1], the target named is T1, PD-L1 (programmed death-ligand 1), recombinant protein (human, UniProt Q9NZQ7 19-238, limits assumed).
T1 construct: the other ELISAs print only 'PD-L1'; also called human PDL1; CD274
Kind of test: direct ELISA, coated PD-L1 (FIG. 28B). Background: In an ELISA, binding on a coated surface is turned into a signal by an enzyme label.

Test [2] concerns the target claudin 18.2 (CLDN 18.2), recombinant protein (human). In words: direct ELISA, coated CLDN 18.2 (FIG. 28A).
Test [3] has the same target. In words: ELISA, coated CLDN18.2 (FIG. 30A).
In test [4] the target is T1, PD-L1 (programmed death-ligand 1), …. Kind of test: ELISA, coated human PDL1 (FIG. 30B).
Test [5] has as its target mouse PDL1 (mouse, UniProt Q9EP73 19-238, limits assumed). Kind of test: ELISA, coated mouse PDL1 (FIG. 30B).
In test [6] the target is claudin 18.2 (CLDN 18.2), recombinant protein (human). Kind of test: direct ELISA on coated CLDN 18.2.
Sequence of claudin 18.2 (CLDN 18.2), recombinant protein (human) (chain, as listed by the source limits assumed): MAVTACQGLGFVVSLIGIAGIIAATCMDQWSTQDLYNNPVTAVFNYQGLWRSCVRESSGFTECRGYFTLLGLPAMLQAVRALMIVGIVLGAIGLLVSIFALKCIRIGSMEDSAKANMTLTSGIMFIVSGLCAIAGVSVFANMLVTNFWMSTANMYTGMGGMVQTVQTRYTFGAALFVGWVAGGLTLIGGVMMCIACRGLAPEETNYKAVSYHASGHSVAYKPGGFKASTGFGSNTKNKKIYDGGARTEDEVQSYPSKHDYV
Test [7] has as its target T1, PD-L1 (programmed death-ligand 1), …. In words: direct ELISA on coated human PD-L1.
In test [8] the target is T2, CLDN 18.2 expressed on stably transfected cells (HEK293T-CLDN 18.2, MiaPaCa-CLDN 18.2) (human). Kind of test: cell-based or functional assay.
T2 sequence (chain, as listed by the source limits assumed): as above
For test [9], the target named is T3, CLDN 18.2 fused with GFP at its C-terminal, on MCF7 cells (MCF7-CLDN 18.2) (human). Kind of test: cell-based or functional assay.
T3 sequence (chain, as listed by the source): as the sequence (chain, as listed by the source limits assumed) above
Test [10] has as its target T2, CLDN 18.2 expressed on stably …. In words: cell-based or functional assay. The source holds these as a separate data set.
For test [11], the target named is T3, CLDN 18.2 fused with GFP at its …. In words: cell-based or functional assay. This is another data set of the same source.
The target of test [12] is claudin 18.2 (CLDN 18.2), recombinant protein (human). In words: direct ELISA, coated recombinant CLDN 18.2. From the text:
ELISA assay was employed to determine the binding properties of the bispecific antibodies to their antigens. […] The wells were then reacted with goat anti human IgG antibody conjugated with horseradish peroxidase (HRP).

The target is the same in test [13]. In words: direct ELISA, coated recombinant CLDN 18.2 (FIG. 7A).
The target is the same in test [14]. Kind of test: competitive phage ELISA, phage-displayed Fab, coated and soluble CLDN 18.2. Also on record: unit not given here. On the procedure:
(§1) After 15 min incubation and washing, anti-M13 antibody/HRP conjugate was added and incubated for 30 min, then developed with TMB for 5-10 min and quenched with 1 M phosphoric acid. Binding signal was analyzed by the plate reader.
(§2) To identify clones with improved solubility, CDR light chain residue 55 (LC55E or L2) was mutated back to Glu on clones 9O47, 5C9oap-oae, 9O24-oae, 9O36-oae, 9O45-oae, and 9O47-oae.

The target is the same in test [15]. Kind of test: competitive phage ELISA: phage-displayed Fab pre-incubated with a dilution series of soluble CLDN 18.2 (axis: GFP-CLDN 18.2, nM), then added to plate-coated CLDN 18.2. On the procedure:
as §1

The target is the same in test [16]. Described as above. On the procedure:
as §1, §2
This is another data set of the same source.

T1 sequence (Q9NZQ7 19-238 limits assumed): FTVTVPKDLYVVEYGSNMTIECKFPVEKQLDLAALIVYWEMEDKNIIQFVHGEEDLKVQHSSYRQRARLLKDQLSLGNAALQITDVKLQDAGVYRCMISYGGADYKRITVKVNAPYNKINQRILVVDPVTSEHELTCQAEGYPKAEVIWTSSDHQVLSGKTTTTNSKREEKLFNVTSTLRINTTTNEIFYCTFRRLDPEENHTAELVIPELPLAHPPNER
Sequence of mouse PDL1 (Q9EP73 19-238 limits assumed): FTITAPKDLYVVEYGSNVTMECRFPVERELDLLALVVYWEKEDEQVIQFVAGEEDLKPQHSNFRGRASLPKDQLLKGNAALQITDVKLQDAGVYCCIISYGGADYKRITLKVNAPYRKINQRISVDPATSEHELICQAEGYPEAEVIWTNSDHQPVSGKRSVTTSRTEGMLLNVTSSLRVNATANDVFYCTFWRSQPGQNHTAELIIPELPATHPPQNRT

B1: Db11-21, heterodimeric (knob/hole) anti-CLDN 18.2/anti-PD-L1 bispecific antibody (bispecific antibody)
chain 1: not shown
chain 2: EIVLTQSPGTLSLSPGERATLSCRASQRVSSSYLAWYQQKPGQAPRLLIYDASSRATGIPDRFSGSGSGTDFTLTISRLEPEDFAVYYCQQYGSLPWTFGQGTKVEIKRSGGGGEVQLVESGGGLVQPGGSLRLSCAVSGYTFSMNWVRQAPGKGLEWVAWINMYTGEPTYADDFKGRFTISRDDSKNTLYLQMNSLRAEDTAVYYCARLYNGNSLDYWGQGTLVTVSSGGGGSEPKSSDKTHTCPPCPAPELLGGPSVFLFPPKPKDTLMISRTPEVTCVVVDVSHEDPEVKFNWYVDGVEVHNAKTKPREEQYNSTYRVVSVLTVLHQDWLNGKEYKCKVSNKALPAPIEKTISKAKGQPREPQVCTLPPSREEMTKNQVSLSCAVKGFYPSDIAVEWESNGQPENNYKTTPPVLDSDGSFFLVSKLTVDKSRWQQGNVFSCSVMHEALHNRFTQKSLSLSPGK
notes: Db11: 5C9ob VL-L1-durvalumab VH-L2-knob Fc; Db21: durvalumab VL-L3-5C9ob VH-L4-hole Fc; also called Db11/Db21
Turning to B1, the dissociation constant (Kd) in test [1] was 0.378 nM; in [2] it was 0.104 nM.

B2: OB12A4, two-chain anti-CLDN 18.2/anti-PD-L1 (12A4) bispecific antibody (bispecific antibody)
chain 1: not shown
chain 2: EIVLTQSPATLSLSPGERATLSCRASQSVSSYLAWYQQKPGQAPRLLIYDASNRATGIPARFSGSGSGTDFTLTISSLEPEDFAVYYCQQRSNWPTFGQGTKVEIKSGGGGEVQLVESGGGLVQPGGSLRLSCAVSGYTFSMNWVRQAPGKGLEWVAWINMYTGEPTYADDFKGRFTISRDDSKNTLYLQMNSLRAEDTAVYYCARLYNGNSLDYWGQGTLVTVSSGGGGSEPKSSDKTHTCPPCPAPELLGGPSVFLFPPKPKDTLMISRTPEVTCVVVDVSHEDPEVKFNWYVDGVEVHNAKTKPREEQYNSTYRVVSVLTVLHQDWLNGKEYKCKVSNKALPAPIEKTISKAKGQPREPQVCTLPPSREEMTKNQVSLSCAVKGFYPSDIAVEWESNGQPENNYKTTPPVLDSDGSFFLVSKLTVDKSRWQQGNVFSCSVMHEALHNRFTQKSLSLSPGK
Regarding B2, the Kd in test [3] is 0.212 nM; in test [4] it was 0.412 nM; in [5], roughly 11100 nM. The figures for the half-maximal effective concentration (EC50 (read off the curve)) in [6] and in [7] were roughly 0.2 nM and roughly 0.4 nM, respectively.

B3: h5C9ob, monospecific parent anti-CLDN 18.2 monoclonal antibody (IgG) (antibody, V domains shown)
VH: EVQLVESGGGLVQPGGSLRLSCAVSGYTFSMNWVRQAPGKGLEWVAWINMYTGEPTYADDFKGRFTISRDDSKNTLYLQMNSLRAEDTAVYYCARLYNGNSLDYWGQGTLVTVSS
VL: DIQMTQSPSSLSASVGDRVTITCKSSQSLLNSGNQKSYLTWYQQKPGKAPKLLIYWASTLESGVPSRFSGSGSGTDYTLTISSLQPEDFATYYCQNAYFFPFTFGQGTKVEIKR
notes: Whole human IgG1 produced as described under 'Production of Recombinant Antibodies'
As for B3, in test [8], the “ADCC reporter assay, EC50 (FIG. 18)” value came to 0.0561 nM and the “CDC against Mia Paca-CLDN 18.2 cells, EC50 (FIG. 17B)” value stood at 0.52 nM. Moreover, in test [9], the “ADCC reporter assay, EC50 (FIG. 24A)” value was 0.00443 nM. In addition, in test [10], the “ADCC Reporter in HEK293-CLDN18.2, EC50” value is 0.056 nM; the “CDC in HEK293-CLDN 18.2, EC50” value amounted to 0.43 nM; the “CDC in MiaPaCa-CLDN 18.2, EC50” value is 0.52 nM. Also, in [11], the “ADCC Reporter in MCF7-CLDN 18.2, EC50” value amounted to 0.006 nM. In test [2], the dissociation constant Kd was determined as 0.0819 nM. The Kd in test [12] is 0.13 nM. Further, the dissociation constant (Kd) in test [13] was 0.133 nM.

B4: 9O36-oae with LC55E, phage-displayed Fab (Fab, V domains shown)
VH: B3 VH with N98R
VL: DIQMTQSPSSLSASVGDRVTITCKSSQSLLNWGNQKSYLTWYQQKPGKAPKLLIYWASTLESGVPSRFSGSGSGTDYTLTISSLQPEDFATYYCQNAYFFPFTFGQGTKVEIK
notes: built from 9O36-oae with light chain residue 55 (Kabat; the sixth residue of VL CDR2 WASTLMS) mutated back to Glu; also called 9O36 oaeL2
In the case of B4, the binding affinity in [14] is 0.059.

B5: 5C9ob, phage-displayed Fab (Fab, V domains shown)
VH: B3 VH
VL: B4 VL with W32S
notes: also called 5C9o with 5C9ob mutations
For B5, the binding affinity in test [14] worked out at 0.221.

B6: 9O24-oae with LC55E, phage-displayed Fab (Fab, V domains shown)
VH: B3 VH with P55K, N98R
VL: B4 VL with W32S, Q35W
notes: built from 9O24-oae with light chain residue 55 (Kabat; the sixth residue of VL CDR2 WASTLVS) mutated back to Glu; also called 9O24 oaeL2
Take B6: the binding affinity in [14] came out at 0.0604.

B7: 9O45-oae with LC55E, phage-displayed Fab (Fab, V domains shown)
VH: B3 VH with P55T, N98R
VL: B4 VL
notes: built from 9O45-oae with light chain residue 55 (Kabat; the sixth residue of VL CDR2 WASTLYS) mutated back to Glu; also called 9O45 oaeL2
On to B7, for which, in [14], the binding affinity is 0.0562.

B8: 9O47, phage-displayed Fab (Fab, V domains shown)
VH: B3 VH with T56I
VL: B4 VL with E61F, F99S
On to B8, for which the binding affinity in test [14] came out at 0.095. In test [15], the “IC50 (read off the curve)” value was roughly 0.1 nM and the Kd is 0.095 nM.

B9: 5C9oap-oaeE (5C9oap-oae with LC55E), phage-displayed Fab (Fab, V domains shown)
VH: B3 VH with P55R, N98R
VL: B4 VL
notes: also called 5C9oap oaeL2; 5C9oap with 5C9oae and L2 mutations
Consider B9, for which the binding affinity in test [14] was 0.0593. Moreover, the “IC50 (read off the curve)” value in [16] was roughly 0.06 nM.

B10: 9O45, phage-displayed Fab (Fab, V domains shown)
VH: B3 VH with P55T
VL: B4 VL with E61Y, F99S
Consider B10, for which the binding affinity in test [14] is 0.104. For the same molecule, the “IC50 (read off the curve)” value in test [15] is roughly 0.1 nM.

B11: 9O24, phage-displayed Fab (Fab, V domains shown)
VH: B3 VH with P55K
VL: B4 VL with W32S, Q35W, E61V, F99S
For B11, the binding affinity in test [14] came out at 0.144. In addition, the “IC50 (read off the curve)” value in test [15] is roughly 0.2 nM.

B12: 9O36, phage-displayed Fab (Fab, V domains shown)
VH: B3 VH
VL: B4 VL with E61M, F99S
In the case of B12, in test [14], the binding affinity was determined as 0.108.

B13: 9O47-oaeE (9O47-oae with LC55E), phage-displayed Fab (Fab, V domains shown)
VH: B3 VH with T56I, N98R
VL: B4 VL
notes: also called 9O47 oaeL2; 9O47 with 5C9oae and L2 mutations
As for B13, the binding affinity in test [14] was 0.0533. The “IC50 (read off the curve)” value in test [16] was roughly 0.06 nM.

B14: 9O41, phage-displayed Fab (Fab, V domains shown)
VH: B3 VH with P55R
VL: B4 VL with W32S, Q35I, E61R, F99S
In the case of B14, in test [14], the binding affinity came out at 0.167.

B15: 9O47E (9O47 with LC55E), phage-displayed Fab (Fab, V domains shown)
VH: B3 VH with T56I
VL: B4 VL with F99S
notes: also called 9O47 LC55E (L2)
Regarding B15, in test [14], the binding affinity worked out at 0.141.

As a reminder, the Kd is the constant that tells how readily two partners part at equilibrium. Usually EC50 (read off the curve) stands for the concentration giving half of the maximal effect.

For the origin of these results see patent publication US20230002486A1 (SPARX THERAPEUTICS, published 2023).
